Results on 2 substances are retold here after article PMC12041258.

Assay [1] has as its target C. crescentus DriD DNABD, DriD(1-70) (C. crescentus). Kind of assay: MST.
Assay [2] deals with C. crescentus DriD(78-327) (C. crescentus). Kind of assay: SEC.
For assay [3] the target is unchanged. Kind of assay: SEC. This is another data set of the same source. On the technique in general: In gel filtration, larger molecules generally elute earlier.

For orientation: Kd means the free concentration of one partner at which half of the binding sites on the other are occupied at equilibrium, for simple one-to-one binding. Lower therefore signals tighter binding. The term stoichiometry N denotes a count of units in the complex or per binding partner.

Read-outs that look alike come from different tables or passages of the source.

Turning to “His-tag free C. crescentus DriD(78-327) (domain or fragment)”, in assay [1], the Kd was 15 µM.

In the case of “C. crescentus DriD(78-327) (domain or fragment)”, the stoichiometry N in assay [2] and in assay [3] was 2 each time.
